Test results as given in the supplement of paper PMC9112550, “Optimization of the antimicrobial peptide Bac7 by deep mutational scanning” (BMC Biology, 2022).

system: Escherichia coli TOP10; assay: shrunken log2 fold change of peptide-encoding DNA abundance (4.5 h post-induction vs induction); higher = less antimicrobial activity (less host growth inhibition); conditions: time post-induction: 4.5 h; library: site-saturation at positions 5, 18, 19, 20
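Note: peptides expressed intracellularly from a pBAD plasmid library in pooled LB shake-flask culture, induced with 0.3% L-arabinose, DNA abundance read by NGS, three biological replicates, DESeq2 with apeglm shrinkage.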

First: RRIRPRPPRLPRPRPRPTEVPRP
Second: RRIRFRPPRLPRPRPRPKPWPRP
The “shrunken log2 fold change” value of the first is lower: -0.342 for the first, 0.489 for the second.

First: RRIRARPPRLPRPRPRPTFAPRP
Second: RRIRARPPRLPRPRPRPHLHPRP
The “shrunken log2 fold change” value of the first is higher: 0.347 for the first, 0.0371 for the second.

Going from RRIRYRPPRLPRPRPRPNLLPRP to RRIRPRPPRLPRPRPRPGCTPRP, the “shrunken log2 fold change” value rises from -0.213 to 0.104.

RRIRHRPPRLPRPRPRPDRVPRP and RRIRYRPPRLPRPRPRPYIRPRP are within 0.2 log units of each other in “shrunken log2 fold change” value: -0.0183 for the first, -1.92e-05 for the second.

RRIRCRPPRLPRPRPRPKEFPRP and RRIRPRPPRLPRPRPRPMTRPRP are within 0.2 log units of each other in “shrunken log2 fold change” value: 0.0238 for the first, 0.0702 for the second.

First: RRIRFRPPRLPRPRPRPHYNPRP
Second: RRIRQRPPRLPRPRPRPSQPPRP
The “shrunken log2 fold change” value of the first is lower: -0.786 for the first, -0.267 for the second.

RRIRYRPPRLPRPRPRPSWEPRP and RRIRSRPPRLPRPRPRPMQGPRP are within 0.2 log units of each other in “shrunken log2 fold change” value: -0.153 for the first, -0.181 for the second.

RRIRNRPPRLPRPRPRPEHMPRP and RRIRIRPPRLPRPRPRPRVDPRP are within 0.2 log units of each other in “shrunken log2 fold change” value: -0.0791 for the first, 0.061 for the second.

Going from RRIRKRPPRLPRPRPRPCCRPRP to RRIRYRPPRLPRPRPRPTVKPRP, the “shrunken log2 fold change” value falls from 0.146 to -0.428.

RRIRVRPPRLPRPRPRPTLLPRP and RRIRQRPPRLPRPRPRPMVNPRP are within 0.2 log units of each other in “shrunken log2 fold change” value: -0.196 for the first, -0.2 for the second.

Compared with RRIRQRPPRLPRPRPRPRVYPRP, RRIRMRPPRLPRPRPRPLRQPRP is lower in “shrunken log2 fold change” value: 0.0498 for the first, -0.214 for the second.

First: RRIRHRPPRLPRPRPRPEPQPRP
Second: RRIRNRPPRLPRPRPRPMLNPRP
The “shrunken log2 fold change” value of the first is higher: 0.39 for the first, -0.21 for the second.

First: RRIRGRPPRLPRPRPRPVKKPRP
Second: RRIRRRPPRLPRPRPRPAGIPRP
The “shrunken log2 fold change” value of the first is higher: 0.949 for the first, 0.352 for the second.

First: RRIRARPPRLPRPRPRPCPKPRP
Second: RRIRERPPRLPRPRPRPQDLPRP
The “shrunken log2 fold change” value of the first is higher: -0.0619 for the first, -0.351 for the second.

RRIRCRPPRLPRPRPRPAQEPRP and RRIRHRPPRLPRPRPRPCDAPRP are within 0.2 log units of each other in “shrunken log2 fold change” value: 0.101 for the first, -0.0305 for the second.

Compared with RRIRGRPPRLPRPRPRPDKEPRP, RRIRMRPPRLPRPRPRPVAEPRP is higher in “shrunken log2 fold change” value: 0.208 for the first, 2.88 for the second.

First: RRIRKRPPRLPRPRPRPMRCPRP
Second: RRIRPRPPRLPRPRPRPGQWPRP
The “shrunken log2 fold change” value of the first is higher: 1.16 for the first, 0.236 for the second.

First: RRIRLRPPRLPRPRPRPERTPRP
Second: RRIRGRPPRLPRPRPRPAKRPRP
The “shrunken log2 fold change” value of the first is lower: 0.098 for the first, 0.504 for the second.

Compared with RRIRDRPPRLPRPRPRPIYFPRP, RRIRVRPPRLPRPRPRPFKYPRP is higher in “shrunken log2 fold change” value: -0.839 for the first, -0.0213 for the second.

Going from RRIRCRPPRLPRPRPRPWHRPRP to RRIRHRPPRLPRPRPRPNLDPRP, the “shrunken log2 fold change” value falls from 0.0363 to -1.17.

RRIRSRPPRLPRPRPRPMCSPRP and RRIRKRPPRLPRPRPRPAFNPRP are within 0.2 log units of each other in “shrunken log2 fold change” value: -0.0814 for the first, -0.169 for the second.

Going from RRIRKRPPRLPRPRPRPICWPRP to RRIRPRPPRLPRPRPRPPPGPRP, the “shrunken log2 fold change” value rises from 0.239 to 0.816.

Going from RRIRGRPPRLPRPRPRPEQYPRP to RRIRDRPPRLPRPRPRPMDAPRP, the “shrunken log2 fold change” value rises from -0.183 to 0.251.

RRIRNRPPRLPRPRPRPVEPPRP and RRIRFRPPRLPRPRPRPWWPPRP are within 0.2 log units of each other in “shrunken log2 fold change” value: 0.173 for the first, 0.0712 for the second.

Going from RRIRWRPPRLPRPRPRPKQKPRP to RRIRERPPRLPRPRPRPNMNPRP, the “shrunken log2 fold change” value falls from 0.0665 to -0.808.

RRIRIRPPRLPRPRPRPWTNPRP and RRIRERPPRLPRPRPRPHADPRP are within 0.2 log units of each other in “shrunken log2 fold change” value: -0.00152 for the first, 0.0454 for the second.

Compared with RRIRCRPPRLPRPRPRPCACPRP, RRIRARPPRLPRPRPRPDGHPRP is higher in “shrunken log2 fold change” value: -0.421 for the first, 0.0106 for the second.

First: RRIRYRPPRLPRPRPRPNMEPRP
Second: RRIRNRPPRLPRPRPRPIRLPRP
The “shrunken log2 fold change” value of the first is lower: -0.618 for the first, -0.0969 for the second.

Compared with RRIRTRPPRLPRPRPRPQIDPRP, RRIRFRPPRLPRPRPRPWKTPRP is higher in “shrunken log2 fold change” value: -0.269 for the first, -0.0119 for the second.

Going from RRIRPRPPRLPRPRPRPQKDPRP to RRIRQRPPRLPRPRPRPVKSPRP, the “shrunken log2 fold change” value rises from -0.132 to 0.169.

RRIRNRPPRLPRPRPRPRDEPRP and RRIRHRPPRLPRPRPRPMGAPRP are within 0.2 log units of each other in “shrunken log2 fold change” value: -0.0923 for the first, 0.0492 for the second.

First: RRIRCRPPRLPRPRPRPVRKPRP
Second: RRIRDRPPRLPRPRPRPAQHPRP
The “shrunken log2 fold change” value of the first is lower: 0.0744 for the first, 0.288 for the second.

Going from RRIRHRPPRLPRPRPRPDEEPRP to RRIRWRPPRLPRPRPRPLVGPRP, the “shrunken log2 fold change” value rises from -0.0946 to 0.282.

Compared with RRIRDRPPRLPRPRPRPPEMPRP, RRIRVRPPRLPRPRPRPHHEPRP is lower in “shrunken log2 fold change” value: 0.78 for the first, -0.582 for the second.

Compared with RRIRARPPRLPRPRPRPSTRPRP, RRIRQRPPRLPRPRPRPAESPRP is lower in “shrunken log2 fold change” value: 0.23 for the first, 0.0234 for the second.

Compared with RRIRGRPPRLPRPRPRPYIYPRP, RRIRKRPPRLPRPRPRPHPAPRP is higher in “shrunken log2 fold change” value: -0.13 for the first, 0.429 for the second.

First: RRIRARPPRLPRPRPRPKECPRP
Second: RRIRTRPPRLPRPRPRPHIGPRP
The “shrunken log2 fold change” value of the first is higher: 0.0495 for the first, -0.156 for the second.

Compared with RRIRKRPPRLPRPRPRPSHSPRP, RRIRFRPPRLPRPRPRPMQIPRP is higher in “shrunken log2 fold change” value: -0.47 for the first, -0.147 for the second.

RRIRRRPPRLPRPRPRPVWSPRP and RRIRHRPPRLPRPRPRPLNPPRP are within 0.2 log units of each other in “shrunken log2 fold change” value: -0.103 for the first, -0.204 for the second.

First: RRIRERPPRLPRPRPRPFTWPRP
Second: RRIRQRPPRLPRPRPRPKPGPRP
The “shrunken log2 fold change” value of the first is lower: -0.737 for the first, 0.285 for the second.

Going from RRIRHRPPRLPRPRPRPFTFPRP to RRIRLRPPRLPRPRPRPARSPRP, the “shrunken log2 fold change” value rises from -0.0857 to 0.343.

Going from RRIRGRPPRLPRPRPRPSWIPRP to RRIRGRPPRLPRPRPRPDRHPRP, the “shrunken log2 fold change” value rises from -0.0436 to 0.191.

First: RRIRWRPPRLPRPRPRPGIQPRP
Second: RRIRARPPRLPRPRPRPTIGPRP
The “shrunken log2 fold change” value of the first is higher: 0.468 for the first, 0.176 for the second.

RRIRKRPPRLPRPRPRPQKEPRP and RRIRDRPPRLPRPRPRPYVGPRP are within 0.2 log units of each other in “shrunken log2 fold change” value: -0.00503 for the first, -0.0122 for the second.

Compared with RRIRNRPPRLPRPRPRPDFTPRP, RRIRLRPPRLPRPRPRPFGFPRP is lower in “shrunken log2 fold change” value: 0.0959 for the first, -0.15 for the second.

Going from RRIRCRPPRLPRPRPRPFFCPRP to RRIRLRPPRLPRPRPRPVGCPRP, the “shrunken log2 fold change” value rises from -0.132 to 0.226.

Going from RRIRGRPPRLPRPRPRPEMGPRP to RRIRKRPPRLPRPRPRPWATPRP, the “shrunken log2 fold change” value falls from 1.37 to 0.546.

Compared with RRIRVRPPRLPRPRPRPNRMPRP, RRIRPRPPRLPRPRPRPSNCPRP is lower in “shrunken log2 fold change” value: -0.093 for the first, -0.909 for the second.

Going from RRIRIRPPRLPRPRPRPCPGPRP to RRIRIRPPRLPRPRPRPMQAPRP, the “shrunken log2 fold change” value rises from -0.372 to -0.00238.

RRIRSRPPRLPRPRPRPAGLPRP and RRIRWRPPRLPRPRPRPQSFPRP are within 0.2 log units of each other in “shrunken log2 fold change” value: -0.0231 for the first, -0.108 for the second.

First: RRIRRRPPRLPRPRPRPQPKPRP
Second: RRIRNRPPRLPRPRPRPPRRPRP
The “shrunken log2 fold change” value of the first is higher: 0.761 for the first, 0.518 for the second.

RRIRDRPPRLPRPRPRPPNVPRP and RRIRKRPPRLPRPRPRPDDQPRP are within 0.2 log units of each other in “shrunken log2 fold change” value: -0.0362 for the first, -0.018 for the second.

RRIRQRPPRLPRPRPRPQYIPRP and RRIRLRPPRLPRPRPRPHWGPRP are within 0.2 log units of each other in “shrunken log2 fold change” value: -0.0838 for the first, 0.0796 for the second.

Compared with RRIRPRPPRLPRPRPRPDRHPRP, RRIRQRPPRLPRPRPRPTYSPRP is higher in “shrunken log2 fold change” value: -0.31 for the first, 0.0402 for the second.

For RRIRSRPPRLPRPRPRPDKLPRP, the “shrunken log2 fold change” value was -0.266.
